The record followed here is the supplement of paper PMC9170038.

For this series, the system named is MS2 coat protein. The experiment in a line: apparent KD of MS2 coat protein; designed switch direction (-1 OFF switch, 1 ON switch): 1; higher = weaker reporter binding. In short, it runs like this:
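The buffer was Tris-HCl pH 7.5 with KCl, MgCl2, BSA, DTT, tRNA and Tween-20. In it, SNAP-549-labelled MS2 coat protein was titrated in doubling steps from 0.7 or 1.5 nM to 3 µM over chip-bound RNA switches transcribed by stalled E. coli RNA polymerase on Illumina chips. Apparent KD is the per-design median over clusters of curve fits to normalised fluorescence.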

Setting [1] is: Eterna round: R95, input ligand: FMN 200 uM.
Where [2] appears, read: Eterna round: R95, input ligand: microRNA oligo, concentration not stated.
[3] abbreviates: Eterna round: R95, input ligand: none.
[4] abbreviates: input ligand: microRNA oligo, concentration not stated.

For the sequence “GGUGAGAGAGUCAAGGAUAUUAAAGGAGAGACAUGAGGAUCACCCAUGUAAGAGAGAGAGGAGAGUGAGAAGGUGAAGAGAGUGG [Altered State 2-25 - Jieux - Same State 2] (puzzle: Same State 2)”, the “apparent KD of MS2 coat protein” value under setting [1] is 0.0304 µM, the “apparent KD of MS2 coat protein” value under setting [2] turned out to be 0.025 µM and the “apparent KD of MS2 coat protein” value under setting [3] worked out at 0.0606 µM.
In the case of “GGUGCCAAAUAAGCCUACAUGAGGAUCACCCAUGUAUGUAGGCAGGAUAUCGUUUGCAAAGCAAACGAGAAGGGCUGAGGCACC [Mat - Same State NG 3 - JL Mod - D53] (Eterna round: R96, puzzle: Same State NG 3)”, the “apparent KD of MS2 coat protein” value by setting is: (input ligand: FMN 200 uM) 0.0261 µM; under setting [4], 0.0427 µM; (input ligand: none) 0.081 µM.
The like results for “GGUGCGAAAUAAGCCUACAUGAGGAUCACCCAUGUAUGUAGGCAGGAUAUCGUUUGCAAAGCAAACGAGAAGGGCUGACGCACC [Mat - Same State NG 3 - JL Mod - D50] (Eterna round: R96, puzzle: Same State NG 3)” were, in that order, 0.0311 µM, 0.0526 µM and 0.0945 µM.
Regarding “GGUGCGAAUAAAGCCUACAUGAGGAUCACCCAUGUAUGUAGGCAGGAUAUCGUUUGCAAAGCAAACGAGAAGGGCUGUCGCACC [Mat - Same State NG 3 - JL Mod - D46] (Eterna round: R96, puzzle: Same State NG 3)”, the “apparent KD of MS2 coat protein” value stood at 0.0299 µM (input ligand: FMN 200 uM), 0.0552 µM under setting [4] and 0.1 µM (input ligand: none).
The like results for “GGUGGGUUACUACCCACACAUGAGGAUCACCCAUGUAUUGGGAAGGAUAUGGUGCCUGUGUGGUACCAGAAGGUCCUGGAGGUG [SS-NG3-LRO20] (Eterna round: R96, puzzle: Same State NG 3)” were, in that order, 1.35 µM, 0.237 µM and 1.59 µM.
The corresponding values for “GUACAGAUCACAGGAUAUCACGUCGAAUAGACGUGAGAAGGGUGAUCACACAUGAAUAUUAAUACAUGAGGAUCACCCAUGUAC [SSNG1/16-A1] (Eterna round: R96, puzzle: Same State NG 1)” are 0.071 µM, 0.0141 µM and 0.0204 µM.
The like results for “GUACAGAUUAUAGGAUAUCACGUCGAAUAGACGUGAGAAGGAUAAUCCCACAUGAAUAUUAAUACAUGAGGAUCACCCAUGUAC [SSNG1/18-B1] (Eterna round: R96, puzzle: Same State NG 1)” were, in that order, 0.0168 µM, 0.0198 µM and 0.0204 µM.
Take “GUACAUAUUAUAGGAUAUCACGUCGUUUAGACGUGAGAAGGAUAAUCCCACAUGAAUAUUAAUACAUGAGGAUCACCCAUGUAC [SSNG1/18-A3] (Eterna round: R96, puzzle: Same State NG 1)”: the “apparent KD of MS2 coat protein” value by setting is: (input ligand: FMN 200 uM) 0.0642 µM; under setting [4], 0.048 µM; (input ligand: none) 0.0639 µM.
Turning to “GUACUCAUGUAAGGAUAUGCAGCCGUUUCGGCUGCAGAAGGUACUAUAAUACAUGAGGAUCACCCAUGUCUCUAUAAUUUAGUG [salish99_SSNG1_r04_901] (Eterna round: R96, puzzle: Same State NG 1)”, the “apparent KD of MS2 coat protein” value reads like this: (input ligand: FMN 200 uM) 0.0706 µM; under setting [4], 0.0345 µM; (input ligand: none) 0.049 µM.
On to “GUAGAACAUGAGGAUCACCCAUGUGAAGACGCAUGAGGAUAUAUACGUAAAUAGCAUACGAUAGAAGGCAUGAUAA [JR_SS001_Sub1703] (Eterna round: R96, puzzle: Same State 1)”, for which the “apparent KD of MS2 coat protein” value under setting [4] stood at 0.0406 µM.
For “GUAGCAUACCGAGGAUAUUCAUAAACAUGAGGAUCACCCAUGUAGGCCAGCAUUAGCUGGCCUUGGGAGAAGGCGGAAUGCUAC [Xeonanis - 20 Mod51] (Eterna round: R96, puzzle: Same State NG 2)”, the “apparent KD of MS2 coat protein” value by setting is: (input ligand: FMN 200 uM) 0.0174 µM; under setting [4], 0.0539 µM; (input ligand: none) 0.0774 µM.
The corresponding values for “GUAGCAUACCGAGGAUAUUCAUACAUGAGGAUCACCCAUGUUUAAUUAUAGGCCAAAAGGCCUUGGGAGAAGGCGGAAUGCUAC [Xeonanis - 20 Mod14] (Eterna round: R96, puzzle: Same State NG 2)” are 0.00839 µM, 0.0101 µM and 0.0144 µM.
The like results for “GUAGCAUACCGAGGAUAUUCAUACAUGAGGAUCACCCAUGUUUAGGCCAGCAUUAGCUGGCCUUGGGAGAAGGCGGAAUGCUAC [Xeonanis - 20 Mod54] (Eterna round: R96, puzzle: Same State NG 2)” were, in that order, 0.0177 µM, 0.0135 µM and 0.0226 µM.
The corresponding values for “GUAGCAUACCGAGGAUAUUCAUAUACAUGAGGAUCACCCAUGUUUAUAUAGGCCAAAAGGCCUUGGGAGAAGGCGGAAUGCUAC [Xeonanis - 20 Mod10] (Eterna round: R96, puzzle: Same State NG 2)” are 0.0121 µM, 0.00788 µM and 0.013 µM.
For the sequence “GUAGCAUACCGAGGAUAUUCAUAUUAAAACAUGAGGAUCACCCAUGUUUAGGCCAAAAGGCCUUGGGAGAAGGCGGAAUGCUAC [Xeonanis - 20 Mod4] (Eterna round: R96, puzzle: Same State NG 2)”, the “apparent KD of MS2 coat protein” value (input ligand: FMN 200 uM) stood at 0.0192 µM, the “apparent KD of MS2 coat protein” value under setting [4] amounted to 0.0179 µM and the “apparent KD of MS2 coat protein” value (input ligand: none) stood at 0.0251 µM.
For the sequence “GUAGCAUACCGAGGAUAUUCAUAUUAAAUACAUGAGGAUCACCCAUGUUAGGCCAAAAGGCCUUGGGAGAAGGCGGAAUGCUAC [Xeonanis - 20 Mod2] (Eterna round: R96, puzzle: Same State NG 2)”, the “apparent KD of MS2 coat protein” value is, setting by setting: (input ligand: FMN 200 uM) 0.0209 µM; under setting [4], 0.0336 µM; (input ligand: none) 0.0635 µM.
The like results for “GUAGCAUACCGAGGAUAUUCAUAUUACAUGAGGAUCACCCAUGUAAGGCCACAUUAGUGGCCUUGGGAGAAGGCGGAAUGCUAC [Xeonanis - 20 Mod42] (Eterna round: R96, puzzle: Same State NG 2)” were, in that order, 0.0183 µM, 0.03 µM and 0.18 µM.
The corresponding values for “GUAGCAUACCGAGGAUAUUCAUAUUACAUGAGGAUCACCCAUGUGGCCAGCAUUAGCUGGCCUUGGGAGAAGGCGGAAUGCUAC [Xeonanis - 20 Mod49] (Eterna round: R96, puzzle: Same State NG 2)” are 0.11 µM, 0.623 µM and 1.15 µM.
The like results for “GUAGCAUACCGAGGAUAUUCAUUACAUGAGGAUCACCCAUGUUUUAUAGGUCGAUUACGACCUUGGGAGAAGGCGGAAUGCUAC [Xeonanis - 20 Mod30] (Eterna round: R96, puzzle: Same State NG 2)” were, in that order, 0.0105 µM, 0.00936 µM and 0.0156 µM.
As for “GUAGCAUACCGAGGAUAUUCUACAUGAGGAUCACCCAUGUUUAAUAGGCCACAUUAGUGGCCUUGGGAGAAGGCGGAAUGCUAC [Xeonanis - 20 Mod47] (Eterna round: R96, puzzle: Same State NG 2)”, the “apparent KD of MS2 coat protein” value (input ligand: FMN 200 uM) was 0.0136 µM, the “apparent KD of MS2 coat protein” value under setting [4] came to 0.0127 µM and the “apparent KD of MS2 coat protein” value (input ligand: none) is 0.0198 µM.
For “GUAUAACAUGAGGAUCACCCAUGUCAACAAAGUCGAGGAUAUGGGCAUAGAUUAUAAGAACCAGAAGGCGAAUAUG [Mat - Same State 1 - Mod of UCT - D42] (puzzle: Same State 1)”, the “apparent KD of MS2 coat protein” value is, setting by setting: under setting [1], 0.119 µM; under setting [2], 0.219 µM; under setting [3], 0.666 µM.
For “GUCAGCGAUUGAGGAUAUCACGUCGUUUAGACGUGAGAAGGCGAUCAUAACAUGAGGAUCACCCAUGUAUUACAUGAAGCUGAC [SSNG1/5-A3] (Eterna round: R96, puzzle: Same State NG 1)”, the “apparent KD of MS2 coat protein” value reads like this: (input ligand: FMN 200 uM) 0.0172 µM; under setting [4], 0.0201 µM; (input ligand: none) 0.0326 µM.
The corresponding values for “GUCCAAAACACAGGAUAUCCCAGUCAUGAUCUGGGAGAAGGGUGGCCACAUGAGGAUCACCCAUGUGAAGUGCGAGAGGCACGA [Inerraat] (Eterna round: R96, puzzle: Same State NG 1)” are 0.258 µM, 0.827 µM and 0.629 µM.
The like results for “GUGAGAUGUUCAGGAUAUUUCAGGAUAGUUAAUCCAAGGCCAUCACAUGAGGAUCACCCAUGUCGAGAGAAGGGAAUUCUCAGG [Eternabot solution 43] (Eterna round: R96, puzzle: Same State NG 2)” were, in that order, 0.378 µM, 0.331 µM and 0.433 µM.
As for “GUGCUCGUGUGAGGAUAUGCUUCCGUUUCGGCUGCAGAAGGUACUAUUAUACAUGAGGAUCACCCAUGUCUCUUUUGUUCGGUG [salish99_SSNG1_r04_911] (Eterna round: R96, puzzle: Same State NG 1)”, the “apparent KD of MS2 coat protein” value worked out at 0.0669 µM (input ligand: FMN 200 uM), 0.0382 µM under setting [4] and 0.0588 µM (input ligand: none).
For the sequence “GUGGCCUAGGCACAGGAUAUGUUUCUCGUAACAUGAGGAUCACCCAUGUGCCUUUGAGAUUUUAUGCAGAAGGGUGCACGCCACG [JL Atiinbe mod 04] (Eterna round: R96, puzzle: Same State 2)”, the “apparent KD of MS2 coat protein” value (input ligand: FMN 200 uM) came to 0.0211 µM, the “apparent KD of MS2 coat protein” value under setting [4] is 0.214 µM and the “apparent KD of MS2 coat protein” value (input ligand: none) came out at 0.425 µM.
